Our source for the Kd values is paper PMC10066265, “Inhibitor-3 inhibits Protein Phosphatase 1 via a metal binding dynamic protein–protein interaction” (Nature Communications, 2023).

Where “and” joins values, the source holds several entries; their conditions need not be identical. Equal values may be shown once.

Holding throughout (conditions): both partners purified
The target of experiment [1] is T1, PP1α_(7-330) (UniProt P62136 7-330).
T1 construct: Protein Phosphatase 1 alpha (PP1α), residues 7-330; His6-PP1 was captured on the Ni-NTA sensor chip as the SPR ligand; Mn2+ in all buffers; also called Protein Phosphatase 1; His6-PP1; source: E. coli, purified (Ni-NTA, SEC)
T1 sequence (P62136 7-330): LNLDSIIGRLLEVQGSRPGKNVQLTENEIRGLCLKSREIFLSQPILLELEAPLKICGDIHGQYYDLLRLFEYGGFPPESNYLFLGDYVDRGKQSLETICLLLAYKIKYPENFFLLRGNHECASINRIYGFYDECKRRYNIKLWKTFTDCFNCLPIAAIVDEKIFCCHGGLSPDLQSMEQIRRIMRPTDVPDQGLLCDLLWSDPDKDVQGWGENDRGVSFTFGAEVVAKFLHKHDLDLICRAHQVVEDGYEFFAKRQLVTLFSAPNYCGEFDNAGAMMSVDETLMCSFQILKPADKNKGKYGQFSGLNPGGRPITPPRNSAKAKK
Put plainly: SPR; as a1 but pH 6.5; His6-PP1 captured on Ni-NTA chip, I3_(27-68) injected; two state model.

Experiment [2] has as its target T1, PP1α_(7-330). Description: SPR; as a1 but pH 7.0; His6-PP1 captured on Ni-NTA chip, I3_(27-68) injected; two state model.
The target in experiment [3] is T1, PP1α_(7-330). Put plainly: SPR; as a1 but pH 7.5; His6-PP1 captured on Ni-NTA chip, I3_(27-68) injected; two state model.
Experiment [4] concerns the target T1, PP1α_(7-330). Description: SPR; His6-PP1 captured on Ni-NTA chip (NiHC200M), I3 variants injected; 25 °C; 20 mM Tris pH 8.0, 500 mM NaCl, 1 mM MnCl2, 0.5 mM TCEP, 0.05% Tween-20; one-to-one one state or one-to-one two state model (TraceDrawer).
In a further experiment the target is T2, PP1α_(7-330) C273S (UniProt P62136 7-330, C273S).
T2 construct: Protein Phosphatase 1 alpha (PP1α), residues 7-330, C273S; His6-tagged form captured on the Ni-NTA sensor chip; also called PP1 C273S; source: E. coli, purified (Ni-NTA, SEC)
T2 sequence (P62136 7-330 C273S): as the sequence (P62136 7-330) above, with C267S counted along it
Described as above.

Another experiment has as its target T3, PP1α_(7-330) H248N (UniProt P62136 7-330, H248N).
T3 construct: Protein Phosphatase 1 alpha (PP1α), residues 7-330, H248N; His6-tagged form captured on the Ni-NTA sensor chip; also called PP1 H248N; source: E. coli, purified (Ni-NTA, SEC)
The experiment is described as above.

For another experiment, the target named is T4, PP1α_(7-330) H66K (UniProt P62136 7-330, H66K).
T4 construct: Protein Phosphatase 1 alpha (PP1α), residues 7-330, H66K (lacks the M1 metal); His6-tagged form captured on the Ni-NTA sensor chip; also called PP1 H66K; source: E. coli, purified (Ni-NTA, SEC)
T4 sequence (P62136 7-330 H66K): as the sequence (P62136 7-330) above, with H60K counted along it
Described as above.

T3 sequence (P62136 7-330 H248N): as the sequence (P62136 7-330) above, with H242N counted along it

B1: I3_(27-68) (I3 PP1 interaction domain) (domain or fragment, human, UniProt O60927 27-68, looked up)
chain: SLTIKLRKRKPEKKVEWTSDTVDNEHMGRRSSKCCCIYEKPR
notes: PPP1R11), human, residues 27-68; source: E. coli BL21 (DE3), purified (Ni-NTA, TEV cleavage, heat, SEC); not shown: His6, N-terminal, cleaved; MBP, N-terminal, cleaved
With B1, the dissociation constant (Kd) is 16.2 nM and 17.7 nM and 17.1 nM with PP1α_(7-330) [1]; 14.9 nM and 16.2 nM and 17.1 nM in the experiment with PP1α_(7-330) [2]; 8.32 nM and 9.2 nM and 9.58 nM in the experiment with PP1α_(7-330) [3]; 9.87 nM and 7.88 nM and 10.5 nM and 9.04 nM with PP1α_(7-330) [4]; 16.9 nM and 15.8 nM and 15.6 nM in the experiment with PP1α_(7-330) C273S; 7.74 nM and 5.38 nM with PP1α_(7-330) H248N. Also, the dissociation constant Kd with PP1α_(7-330) H66K is 6.66 nM and 5.65 nM and 5.52 nM.
